Laboratory results: the supplement of paper PMC10567573

B1: DLC1 (parent)
chain: RDAIEALCRRLNTLNKCAVMKLEI
B2: ZNF511 (parent)
chain: HLYPADFRFDKPKKSRSPASAEAP

Variants of: B1
Experiment: protein stability index of a GFP-peptide fusion (GPS, HEK-293T) (PSI 1-6); higher = more stable
Conditions: c terminus: a fixed tail appended
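Note: lentivirally expressed fusions sorted by FACS into six bins by GFP to DsRed ratio, PSI derived from sequencing read proportions per bin multiplied by bin number.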

Protein stability index of substitutions, site by site:
E5: M 3.42 | C 2.39 | H 2.47 | L 3.21 | S 1.83 | V 1.97 | R 2.97 | A 2.3 | P 3.06 | Y 2.23 | W 2.13 | I 2.84
A3: V 3.3 | M 3.33 | I 2.5 | E 1.48 | C 3.99 | Y 2.37 | G 2.33 | K 2.7 | Q 2.95 | N 3.61
R9: H 3.54 | G 1.83 | S 4.18 | C 3.38 | V 2.69 | Q 4.01 | L 1.63 | I 1.79 | T 2.37 | N 3.68 | F 2.45 | K 1.69 | E 4.07 | D 2.25
L7: R 2.13 | K 2.16 | T 2.46 | D 2.13 | M 3.54 | G 2.13 | E 1.02 | N 2.5 | H 1.31 | P 2.31 | C 1.97 | Y 1.81 | F 2.12 | S 1.78 | A 2.37 | Q 2.41 | V 2.36
L11: Y 2.67 | H 1.6 | F 2.72 | C 3.62 | P 2.84 | N 2.33 | K 2.96 | E 1.84 | R 1.89 | T 2.52 | D 3.27 | S 3.62 | W 2.05 | Q 2.56
A6: K 2.82 | R 2.92 | M 2.97 | T 2.35 | D 1.41 | L 3.11 | P 3.8 | N 2.69 | E 1.64 | H 3.17 | Y 1.73 | C 3.07 | G 3.12 | F 3.71 | S 3.05
R10: P 2.71 | I 4.62 | A 2.67 | V 1.86 | Y 2.21 | F 1.86 | S 3.43 | K 3.44 | M 3.3 | T 3.17 | H 3.54 | W 2.52 | Q 3.82 | N 4.43 | L 2.43 | C 3.31
I4: F 3.05 | K 2.37 | Q 2.12 | R 2.41 | L 2.59 | T 2.24 | N 2.4 | C 2.22 | E 1.44 | D 2.67 | A 1.76 | H 2.44 | V 3.39 | M 2.53
N12: P 2.26 | D 4.53 | C 3.35 | A 1.09 | K 2.79 | H 2.28 | L 2.99 | E 1.84 | M 1.84 | F 2.97
C8: W 4.11 | M 3.9 | T 1.46 | G 3.13 | F 2.82 | L 2.33 | P 2.04 | S 1.39 | Q 1.07 | Y 3.24 | I 4.17 | V 2.73 | N 2.35 | K 1.84 | H 2.7 | A 2.37 | R 1.41 | D 2
D2: E 3.12 | P 3.08 | G 3.23 | Q 2.74 | A 2.4 | H 1.94 | I 2.03 | W 4.44 | M 3.99 | S 3.79
R1: C 2.52 | Q 3.23 | N 1.64 | H 3.12 | E 2.47 | I 2.9 | G 2.35 | M 3.94 | P 2.85 | L 2.02 | S 3.94 | Y 2.99 | K 2.23 | V 3.38 | D 2.4

Variants of: B2
Experiment: as above
Conditions: c terminus: a fixed tail appended

Protein stability index: each site, then its substitutions
S15: V 2.36 | G 2.86 | T 2.4 | L 2.92 | H 2.93 | F 3.04 | E 3.18
K11: C 3.21 | E 3.01 | G 3.5 | L 2.72 | P 2.87 | F 2.95 | Q 3.24 | Y 2.44 | T 3.02
P12: H 2.89 | I 3.72 | R 2.47 | L 3.25 | T 3.7 | V 2.8 | N 2.65
F7: S 4.25 | A 4.81 | L 4.49 | N 4.15 | I 3.94 | Y 3.29 | V 4.62 | D 4.63 | R 4.22
D6: M 1.55 | E 2.1 | T 2.48 | W 2.87 | P 3.19 | N 2.82
P4: M 3.43 | R 3.73 | W 2.33 | T 3.77 | D 4.22 | F 2.85
A19: G 3.02 | L 2.88 | P 3.18 | W 2 | C 2.63 | I 2.74 | M 2.7 | N 2.56
H1: E 3.81 | D 4.13 | C 3.59 | W 2.69 | V 3.67 | I 2.85 | M 4.09 | G 4.7 | Q 3.65
K14: H 2.37 | L 3.24 | V 2.33 | C 2.77 | Q 2.39
Y3: L 4.36 | A 4.14 | N 2.43 | V 3.81 | M 4.4 | F 3.13 | Q 3.85 | S 3.64 | C 3.55 | T 4.65
S20: L 2.51 | G 2.85 | T 3.07 | A 3.32 | M 2.68 | E 2.78
K13: T 3.18 | W 2.58 | A 3.07 | C 2.8 | L 2.94 | I 3 | N 2.7
P18: A 2.22 | N 2.34 | C 2.97 | I 2.96 | W 2.51 | H 2.74 | S 2.97
P24: H 2.87 | A 3.32 | E 2.6 | N 3.09 | Y 2.69
D10: V 2.62 | L 3.01 | W 2.92 | Q 2.26 | H 1.52 | E 3.08 | F 2.83
E22: L 2.58 | Y 2.34 | K 2.69 | P 2.91 | R 2.43
A5: P 4.01 | S 2.69 | C 3.06 | D 2.32
F9: P 2.35 | R 3.71 | L 3.18 | I 2.49 | S 2.05 | C 2.61 | W 2.82
R16: Y 2.13 | P 3.2 | G 3.29 | M 3.28 | L 2.97 | C 2.54
A23: E 2.88 | H 3.13 | S 2.86 | W 2.82 | L 2.88 | N 3.1 | D 3.24
R8: F 2.37 | T 2.44 | M 2.64 | A 2.61 | V 1.6 | G 2.53 | P 4.07 | W 1.8 | L 1.77
A21: L 2.38 | T 2.75 | R 2.84 | Q 3.67 | E 3.08 | K 2.81 | W 2.28 | D 2.72 | P 3.11
S17: V 2.28 | H 2.86 | Y 2.29 | L 2.9 | T 2.97 | Q 3 | A 2.61 | G 2.63 | R 3.29 | E 3.18 | C 2.9
L2: S 4.63 | A 4.37 | C 3.53
